Assay results as given in the supplement of paper PMC9112550, “Optimization of the antimicrobial peptide Bac7 by deep mutational scanning” (BMC Biology, 2022).

Tested on: Escherichia coli TOP10
Experiment: shrunken log2 fold change of peptide-encoding DNA abundance (4.5 h post-induction vs induction); higher = less antimicrobial activity (less host growth inhibition)
Settings: time post-induction: 4.5 h; library: site-saturation at positions 5, 18, 19, 20
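Note: peptides expressed intracellularly from a pBAD plasmid library in pooled LB shake-flask culture, induced with 0.3% L-arabinose, DNA abundance read by NGS, three biological replicates, DESeq2 with apeglm shrinkage.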

Sequence | shrunken log2 fold change
RRIRYRPPRLPRPRPRPQGMPRP | -0.0114
RRIRKRPPRLPRPRPRPTKLPRP | 0.246
RRIRIRPPRLPRPRPRPMCRPRP | -0.236
RRIRNRPPRLPRPRPRPKMFPRP | -0.00426
RRIRIRPPRLPRPRPRPAYQPRP | -0.76
RRIRKRPPRLPRPRPRPLHMPRP | 0.102
RRIRRRPPRLPRPRPRPKYPPRP | -0.0539
RRIRIRPPRLPRPRPRPWCFPRP | -0.596
RRIRMRPPRLPRPRPRPASKPRP | 0.0582
RRIRCRPPRLPRPRPRPMYWPRP | 0.0082
RRIRTRPPRLPRPRPRPQTRPRP | 0.145
RRIRHRPPRLPRPRPRPYLQPRP | -0.0639
RRIRQRPPRLPRPRPRPKCKPRP | 0.0386
RRIRIRPPRLPRPRPRPIKQPRP | 0.00391
RRIRQRPPRLPRPRPRPVGHPRP | -0.0132
RRIRDRPPRLPRPRPRPMARPRP | 0.0954
RRIRMRPPRLPRPRPRPTGPPRP | 0.388
RRIRERPPRLPRPRPRPTNDPRP | 0.127
RRIRWRPPRLPRPRPRPLRIPRP | 0.148
RRIRGRPPRLPRPRPRPPWRPRP | 1.07
RRIRHRPPRLPRPRPRPDSNPRP | -0.0814
RRIRMRPPRLPRPRPRPKPCPRP | 0.366
RRIRGRPPRLPRPRPRPGQHPRP | 0.0185
RRIRQRPPRLPRPRPRPLIVPRP | -0.149
RRIRNRPPRLPRPRPRPYIVPRP | -0.314

Sequence | shrunken log2 fold change
RRIRYRPPRLPRPRPRPMWNPRP | -0.302
RRIRTRPPRLPRPRPRPGTEPRP | 0.0787
RRIRQRPPRLPRPRPRPVVHPRP | -0.164
RRIRHRPPRLPRPRPRPWSRPRP | 0.0245
RRIRHRPPRLPRPRPRPRRAPRP | 0.21
RRIRWRPPRLPRPRPRPWALPRP | -0.158
RRIRTRPPRLPRPRPRPNFSPRP | 0.059
RRIRPRPPRLPRPRPRPACKPRP | 0.0686
RRIRWRPPRLPRPRPRPACYPRP | 0.443
RRIRMRPPRLPRPRPRPNCFPRP | 0.153
RRIRDRPPRLPRPRPRPASGPRP | 0.15
RRIRARPPRLPRPRPRPELYPRP | 0.428
RRIRPRPPRLPRPRPRPSHTPRP | -0.0343
RRIRYRPPRLPRPRPRPLGYPRP | -0.162
RRIRHRPPRLPRPRPRPGLMPRP | -0.162
RRIRHRPPRLPRPRPRPFFKPRP | -0.149
RRIRNRPPRLPRPRPRPAHNPRP | -0.259
RRIRERPPRLPRPRPRPEHNPRP | -0.203
RRIRARPPRLPRPRPRPFRRPRP | -0.0278
RRIRQRPPRLPRPRPRPHIAPRP | -0.142
RRIRIRPPRLPRPRPRPYINPRP | -1.08
RRIRCRPPRLPRPRPRPGMVPRP | 0.0377
RRIRKRPPRLPRPRPRPSKCPRP | -0.388
RRIRRRPPRLPRPRPRPEPWPRP | 0.538
RRIRYRPPRLPRPRPRPYMMPRP | -0.337

Sequence | shrunken log2 fold change
RRIRERPPRLPRPRPRPFTAPRP | -0.227
RRIRKRPPRLPRPRPRPNFSPRP | -0.084
RRIRKRPPRLPRPRPRPPATPRP | 0.773
RRIRDRPPRLPRPRPRPNEFPRP | -0.0102
RRIRNRPPRLPRPRPRPLRRPRP | 2.43
RRIRTRPPRLPRPRPRPALCPRP | -0.0776
RRIRHRPPRLPRPRPRPAQYPRP | -0.0609
RRIRERPPRLPRPRPRPKLQPRP | 0.00297
RRIRLRPPRLPRPRPRPKDNPRP | -0.303
RRIRFRPPRLPRPRPRPCKWPRP | -0.0168
RRIRDRPPRLPRPRPRPCSSPRP | 0.187
RRIRMRPPRLPRPRPRPKWWPRP | 0.755
RRIRWRPPRLPRPRPRPILTPRP | 0.00604
RRIRWRPPRLPRPRPRPEHNPRP | 0.147
RRIRQRPPRLPRPRPRPVYAPRP | 0.16
RRIRCRPPRLPRPRPRPSRHPRP | -0.33
RRIRQRPPRLPRPRPRPNNQPRP | -0.477
RRIRGRPPRLPRPRPRPSMYPRP | 0.173
RRIRFRPPRLPRPRPRPRWIPRP | 0.0967
RRIRERPPRLPRPRPRPNWRPRP | 0.194
RRIRKRPPRLPRPRPRPHDFPRP | -0.0488
RRIRFRPPRLPRPRPRPFLTPRP | -0.172
RRIRWRPPRLPRPRPRPIAYPRP | 0.000575
RRIRLRPPRLPRPRPRPPEWPRP | 0.682
RRIRPRPPRLPRPRPRPRGLPRP | 0.198
